This passage reports Kd results from paper PMC11238091.

What is called Kd is the constant that tells how readily two partners part at equilibrium. A low value points to higher affinity.

The target of assay [1] is STMND1-SLD (stathmin-like domain of human STMND1, amino acids 118-276), His6-tagged (human) (UniProt H3BQB6). The assay is described as follows: BLI. On the technique in general: In BLI a coated tip is dipped into the sample, and binding shifts an interference pattern.
For assay [2], the target named is S1-STMND1 (human STMND1 lacking the first seven amino acids, amino acids 8-276), His6-tagged (human) (UniProt H3BQB6). The assay is described as follows: BLI.

Regarding “Bovine brain tubulin (αβ-tubulin heterodimer) (from UniProt Q6B856 1-445) (complex)”, the Kd in assay [1] stood at 600 nM; in assay [2], 400 nM.
